# Experimental data as given in the supplement of paper PMC9170038.
# Test system: MS2 coat protein
# Experiment: apparent KD of MS2 coat protein; higher = weaker reporter binding
# Conditions: Eterna round: R107
# In short: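 Binding of SNAP-549-labelled MS2 coat protein was measured on designed RNA switches transcribed on-chip from Illumina sequencing clusters. The protein rose in twofold steps from 0.7 or 1.5 nM to 3 µM, with 0.8–1.5 h per step early on and 10–20 min per step later, in 100 mM Tris-HCl pH 7.5, 80 mM KCl, 4 mM MgCl2, without or with constant ligand. Each design's apparent KD is the median of fits to its normalised cluster binding curves.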
# [1] = input ligand: theophylline 20 uM
# [2] = input ligand: theophylline 2 mM
# [3] = input ligand: tryptophan 2.4 mM
Sequence,apparent KD of MS2 coat protein (input ligand: arginine 13.2 mM) [nM],apparent KD of MS2 coat protein (input ligand: none) [nM],apparent KD of MS2 coat protein [1] [nM],apparent KD of MS2 coat protein [2] [nM],apparent KD of MS2 coat protein [3] [nM]
UAGCGAUAAUCUGAUACCAGACGUGUGCUCUCCUCAGACAUGAGGAUCACCCAUGUAUGCGUCCCUUGGCAGCAGAGUGAGGAGA [Theo B Ex t5],19.6,19.6,26.8,115,18.6
UAUAUAGAAGGAAGUCAUAUAGAUGCAGAAGGAGCGUAGGAAACUACAGGUAGGUCGCUGAGGUACAUGAGGAUCACCCAUGUAG [SSArg A #15 Slice of Pi],24.7,32.3,44.7,24.9,29.4
UAUAUAUACUCGGCCGCCACUGAGAGAGUCAUGUAAACAUGAGGAUCACCCAUGUAAUAUAUAUACAGGACCGGGAGUAUAUUAA [4.A],19.1,,17.3,15.8,
UAUAUAUAUCACUAACUGUUCUUGAGGUCUCGAGGACCGGUACGGCCGCCACUCGGGCCGCCUCACAUGAGGAUCACCCAUGUCC [XTryp A #3],38.9,,94.8,89.4,
UAUAUAUGGAUGGAUACCAGCAGAGAAAACGUUUAUCCUAACAUGAGGAUCACCCAUGUAUGCCCUUGGCAGCUGUUUAUAUAUA [8.J],21,,33.9,,24.3
UAUCCACAUGAGGAUCACCCAUGUAGGGAAGGAGCGGUGAUUUCACCAGGUAGGUCGCCUUACUGAGGAGAGCCGGUGGAAUCGU [Exclusion - Arginine A (Freestyle 31)],22.3,24.9,31.9,32.9,31.6
UAUCCACAUGAGGAUCACCCAUGUUAGGAAGGAGCGGUGAAUGAACCAGGUAGGUCGCCUAGGUGAGGACCAUCUAUGGAUUCGU [Exclusion - Arginine A (Freestyle 12)],12.8,13.3,19.8,14.6,13.1
UAUCGUCAGACGGCCGCCACUAGAACAUGAGGAUCACCCAUGUACCCGGUCCAUUCCUCAUUAACUAGGACCGGGUCUGACGAAU [(Trp1)-(Ms2)-(T)'-(M)'-(Trp2)_Design13],88.3,,129,131,
UAUCGUCAGACGGCCGCCACUAGAACAUGAGGAUCACCCAUGUACGGCCGCCCGGUGUGAUCCACUAGGACCGGGUCUGACGAAU [(Trp1)-(Ms2)-(T)'-(M)'-(Trp2)_Design23],39.3,66.8,77.9,95.7,53.8
UAUCUUGCGGGCGCCCGCAAGGUUGCGGAUACCAGCGAGAUAAAUCGCCCUUGGCAGCCGAACAUGAGGAUCACCCAUGUCGGAC [Same State - Theophylline A Attempt #1 (HarryS)],7.94,,11.8,,9.87
UAUGCACAUGAGGAUCACCCAUGUAUGGAAGGAGCGGUGAAUAAACCAGGUAGGUCGCCAUUGUGAGGGUCAUCUAUGUAAUCGU [Exclusion - Arginine A (Freestyle 4)],58.6,85.3,125,133,91.8
UAUUAUAACCGAAGGAGCGGGAAAGAUGAUUUUUAAUAUUAACAUGAGGAUCACCCAUGUACCCAGGUAGGUCGCGGAUAUUAUU [Default title],23.8,19.5,23.4,20.7,19
UAUUUUGUGAUGGAUACCAGCAGAGAAAACGUUUAUCCUAACAUGAGGAUCACCCAUGUAUGCCCUUGGCAGCUGUUGUGGGAUA [8.Q],24.9,,42,,29.9
UCACAUGAGGAUCACCCAUGUACAGGCGAUACCAGCCGUACAUUGGGCCCUUGGCAGCGCACCGAGACCUUUUAAAGCACUUCGG [Er],33.5,,103,,34.7
UCACGACGCAACGUGAGAUAAUGAACAGAAGGAGCGAGGAGAGCCUCAGGUAGGUCGCUGACAUGAGGAUCACCCAUGUAUUACA [Same State Arginine A GF6],63.8,82.8,84.2,80,65.2
UCAGUGCAAGGAAGGAGCGGGUACAUGAGGAUCACCCAUGUGCAAGUGGUGAGUGUUCGUGCCCAGGUAGGUCGCCUAGCCUGGU [XArg-B19],36.4,192,122,348,54.5
UCAUAAGUACCGGUCCUCAGAUCCUCAUGACGAGGACCGGUACGGCCGCCACUCGAAACAUGAGGAUCACCCAUGUAAUAAUAUU [Brourdmod11],19.5,,28.5,27.3,

Sequence,apparent KD of MS2 coat protein (input ligand: arginine 13.2 mM) [nM],apparent KD of MS2 coat protein (input ligand: none) [nM],apparent KD of MS2 coat protein [1] [nM],apparent KD of MS2 coat protein [2] [nM],apparent KD of MS2 coat protein [3] [nM]
UCAUGCAGGUCGGCCGCCACUACACACAUGAGGAUCACCCAUGUAGUUACUGGGUGAAGUGGCAGUAGGACCGGGACCUGCAUAC [Brourdmod09],89.1,591,604,342,78
UCAUUUGAGUGAGAUGUAAGGUAUCAUGAUACCAGUAGAUAAUUAUACCCUUGGCAGCAUAACAUGAGGAUCACCCAUGUACAUG [Ac],20.1,,27,,19.6
UCCUCCUCCGCAAGGAGGAGGAGUUGCGAUACCAGCACGGCAACGUGCCCUUGGCAGCGCACAUGAGGAUCACCCAUGUCAUGUU [#1 Exclusion - Theophylline A Attempt #10 (HarryS)],15.5,,29.5,,18.8
UCGCAUUGCUCAGAUACCAGACAUGAGGAUCACCCAUGUACCAAGGUAACCGAAAGGCAUGUCCCUUGGCAGCUGAGCAAUGCGU [MAT - Exclusion Theophlline B - Mod of Eli - D14],12.4,,21.1,,13.1
UCGCAUUGCUGCGAUACCAGACAUGAGGAUCACCCAUGUACCAAGGUACGAAAAUAACAUGUCCCUUGGCAGCGCAGCAAUGCGU [MAT - Exclusion Theophlline B - Mod of Eli - D5],11.9,,30.1,,13.9
UCGCCAUUGACGGCCGCCACUCAAUGGUCUUCUCUGAACAUAAUUAACAUGAGGAUCACCCAUGUGAGGACCGGGUCGGUUAGAC [theeternabot_exclusion_MS2_Trp_B_24],17.4,,23.5,20.4,
UCGCUCUGGGUGAAUUCCGGAGAUGUGGAAGGAGCGGACGAAAGUCCAGGUAGGUCGCCAUCGGACAUGAGGAUCACCCAUGUAC [Same State - Arginine A (Freestyle 22)],55.6,122,99.8,100,89.9
UCGCUCUGGGUGAGUUCCGGAGAUGUGGAAGGAGCGCUCGAAAGAGCAGGUAGGUCGCCAACGGACAUGAGGAUCACCCAUGUAC [Same State - Arginine A (Freestyle 21)],33.8,39.1,76.1,34.4,40.3
UCGGGCAGAGCGGCCGCCACUGUAAGGCGUGCGGAUGACGGAACAUGAGGAUCACCCAUGUUGUUUAGGACCGGGCUUGCGGCGA [nynullin],22.5,15.8,27.2,11.2,16.7
UCGGGCAGAGCGGCCGCCACUGUUUGGCAUGCGGAUGAAGGAACAUGAGGAUCACCCAUGUAGAUUAGGACCGGGCUGGCGGAGA [jjhemullin],17.3,20.1,19.2,39.4,36.5
UCGGGCAUAGCGGCCGCCACUGUUUGGCGUGCGGAUGACGGAACAUGAGGAUCACCCAUGUUGUUUAGGACCGGGCUUGCGUCGU [zyzmullin],14,,17.8,14.5,
UCGGUGCUCUACAUGAGGAUCACCCAUGUCCGAGGACCGGUACGGCCGCCACUCGCAAUCAAACAGACGUGGGCCAACUUUGCGU [Tiribeesqu],11,,12.1,11,
UCGUGUAUAUCGGAUACCAGUGAAAUCGAUACAUGAGGAUCACCCAUGUGAGAGGAUGUACACCCUUGGCAGCUGUAUAUAUCUA,19.5,,28.5,,25.1
UCGUGUAUUUCGGAUACCAGUGAAAUCGAUACAUGAGGAUCACCCAUGUGAGAGGAUGUACACCCUUGGCAGCUGUCUGUAUCUG [cxezmullin],14.6,,20.2,,15.5
UCGUUUUAGUCGGCCGCCACUGUAUGCAUGUUUAACAUGAGGAUCACCCAUGUCCCGUUCUAUUUCAGGACCGGGACGUAAUCGA [JR_SSTryptoB_Sub008],106,,382,619,
UCUAACAUGAGGAUCACCCAUGUGGGUUAUCGAGGACCGGUACGGCCGCCACUCGACCAGUAUAACUGGCUAGAACGUAUUUGAU [theeternabot_sameState_MS2_Trp_A_34],31.1,,53.6,49.4,
UCUCAAGGCCGCUCGGUGCUCCCUGGUGAUACCAGCCAUAUAUCCGGCCCUUGGCAGCACAUGAGGAUCACCCAUGUAGCAGGCG [Sorimaat],18,24,41.6,8.54,28.1
